The subject of one experiment is gRNA of HCoV-OC43. It is filed as binding. As to conditions: for target (spectral count, OC43 Probe I RNP capture) / background (spectral count, no-probe control): type n_48_v: 48 hours post-infection; for target (spectral count, OC43 Probe I RNP capture): infected cells, unweighted spectral count; for background (spectral count, no-probe control): no-probe control on infected cells.

The subject of a further experiment is HCoV-OC43 gRNA and sgRNA. It is filed as binding. As to conditions: for target (unweighted spectral count, OC43 Probe II) / background (unweighted spectral count, no-probe control): type n_48_v, 48 hpi; for target (unweighted spectral count, OC43 Probe II): OC43 Probe II capture on infected cells; for background (unweighted spectral count, no-probe control): no-probe control on infected cells; for target (unweighted spectral count, OC43 Probe II capture): 36 hpi, type n_36_v, FDR<10%; for target (unweighted spectral count, OC43 Probe II capture) / target (unweighted spectral count): tested against no-probe control; for target (unweighted spectral count): OC43 Probe II, infected cells.

Read-outs that look alike come from different tables or passages of the source.

B1: KRT10 (protein, UniProt P13645 1-584, looked up)
Keratin, type I cytoskeletal …: MSVRYSSSKHYSSSRSGGGGGGGGCGGGGGVSSLRISSSKGSLGGGFSSGGFSGGSFSRGSSGGGCFGGSSGGYGGLGGFGGGSFRGSYGSSSFGGSYGGIFGGGSFGGGSFGGGSFGGGGFGGGGFGGGFGGGFGGDGGLLSGNEKVTMQNLNDRLASYLDKVRALEESNYELEGKIKEWYEKHGNSHQGEPRDYSKYYKTIDDLKNQILNLTTDNANILLQIDNARLAADDFRLKYENEVALRQSVEADINGLRRVLDELTLTKADLEMQIESLTEELAYLKKNHEEEMKDLRNVSTGDVNVEMNAAPGVDLTQLLNNMRSQYEQLAEQNRKDAEAWFNEKSKELTTEIDNNIEQISSYKSEITELRRNVQALEIELQSQLALKQSLEASLAETEGRYCVQLSQIQAQISALEEQLQQIRAETECQNTEYQQLLDIKIRLENEIQTYRSLLEGEGSSGGGGRGGGSFGGGYGGGSSGGGSSGGGHGGGHGGSSGGGYGGGSSGGGSSGGGYGGGSSSGGHGGSSSGGYGGGSSGGGGGGYGGGSSGGGSSSGGGYGGGSSSGGHKSSSSGSVGESSSKGPRY
Take B1: in the experiment with gRNA of HCoV-OC43, the “target (spectral count, OC43 Probe I RNP capture)” value was 14 and the “background (spectral count, no-probe control)” value is 3. For the same molecule, in the experiment with HCoV-OC43 gRNA and sgRNA, the “target (unweighted spectral count, OC43 Probe II)” value is 22 and the “background (unweighted spectral count, no-probe control)” value is 3.

B2: TXN (protein, UniProt P10599 2-105, looked up)
Thioredoxin: VKQIESKTAFQEALDAAGDKLVVVDFSATWCGPCKMIKPFFHSLSEKYSNVIFLEVDVDDCQDVASECEVKCMPTFQFFKKGQKVGEFSGANKEKLEATINELV
For B2, in the experiment on gRNA of HCoV-OC43, the “target (spectral count, OC43 Probe I RNP capture)” value was determined as 8 and the “background (spectral count, no-probe control)” value is recorded as 1. Further, in the experiment with HCoV-OC43 gRNA and sgRNA, the “target (unweighted spectral count, OC43 Probe II capture)” value came to 6.

B3: XRN2: host protein, UniProt Q9H0D6 (protein, UniProt Q9H0D6 1-950, looked up)
5'-3' exoribonuclease 2: MGVPAFFRWLSRKYPSIIVNCVEEKPKECNGVKIPVDASKPNPNDVEFDNLYLDMNGIIHPCTHPEDKPAPKNEDEMMVAIFEYIDRLFSIVRPRRLLYMAIDGVAPRAKMNQQRSRRFRASKEGMEAAVEKQRVREEILAKGGFLPPEEIKERFDSNCITPGTEFMDNLAKCLRYYIADRLNNDPGWKNLTVILSDASAPGEGEHKIMDYIRRQRAQPNHDPNTHHCLCGADADLIMLGLATHEPNFTIIREEFKPNKPKPCGLCNQFGHEVKDCEGLPREKKGKHDELADSLPCAEGEFIFLRLNVLREYLERELTMASLPFTFDVERSIDDWVFMCFFVGNDFLPHLPSLEIRENAIDRLVNIYKNVVHKTGGYLTESGYVNLQRVQMIMLAVGEVEDSIFKKRKDDEDSFRRRQKEKRKRMKRDQPAFTPSGILTPHALGSRNSPGSQVASNPRQAAYEMRMQNNSSPSISPNTSFTSDGSPSPLGGIKRKAEDSDSEPEPEDNVRLWEAGWKQRYYKNKFDVDAADEKFRRKVVQSYVEGLCWVLRYYYQGCASWKWYYPFHYAPFASDFEGIADMPSDFEKGTKPFKPLEQLMGVFPAASGNFLPPSWRKLMSDPDSSIIDFYPEDFAIDLNGKKYAWQGVALLPFVDERRLRAALEEVYPDLTPEETRRNSLGGDVLFVGKHHPLHDFILELYQTGSTEPVEVPPELCHGIQGKFSLDEEAILPDQIVCSPVPMLRDLTQNTVVSINFKDPQFAEDYIFKAVMLPGARKPAAVLKPSDWEKSSNGRQWKPQLGFNRDRRPVHLDQAAFRTLGHVMPRGSGTGIYSNAAPPPVTYQGNLYRPLLRGQAQIPKLMSNMRPQDSWRGPPPLFQQQRFDRGVGAEPLLPWNRMLQTQNAAFQPNQYQMLAGPGGYPPRRDDRGGRQGYPREGRKYPLPPPSGRYNWN
Turning to B3, the “target (spectral count)” value in the experiment with gRNA of HCoV-OC43 (type g_36_m, HCoV-OC43-infected HCT-8 cells, 36 hpi, Probe I) is 8. For the same molecule, the “background (spectral count)” value in the experiment with gRNA of HCoV-OC43 (type g_36_m, uninfected-probe control, 36 hpi, Probe I) was determined as 1. For the same molecule, in the experiment with gRNA of HCoV-OC43, the “target (spectral count, OC43 Probe I RNP capture)” value was 9 and the “background (spectral count, no-probe control)” value stood at 1. Also, in the experiment on HCoV-OC43 gRNA and sgRNA, the “target (unweighted spectral count, OC43 Probe II)” value was 10 and the “background (unweighted spectral count, no-probe control)” value is given as 1.

B4: TOP1 (protein, UniProt P11387 2-765, looked up)
DNA topoisomerase 1: SGDHLHNDSQIEADFRLNDSHKHKDKHKDREHRHKEHKKEKDREKSKHSNSEHKDSEKKHKEKEKTKHKDGSSEKHKDKHKDRDKEKRKEEKVRASGDAKIKKEKENGFSSPPQIKDEPEDDGYFVPPKEDIKPLKRPRDEDDADYKPKKIKTEDTKKEKKRKLEEEEDGKLKKPKNKDKDKKVPEPDNKKKKPKKEEEQKWKWWEEERYPEGIKWKFLEHKGPVFAPPYEPLPENVKFYYDGKVMKLSPKAEEVATFFAKMLDHEYTTKEIFRKNFFKDWRKEMTNEEKNIITNLSKCDFTQMSQYFKAQTEARKQMSKEEKLKIKEENEKLLKEYGFCIMDNHKERIANFKIEPPGLFRGRGNHPKMGMLKRRIMPEDIIINCSKDAKVPSPPPGHKWKEVRHDNKVTWLVSWTENIQGSIKYIMLNPSSRIKGEKDWQKYETARRLKKCVDKIRNQYREDWKSKEMKVRQRAVALYFIDKLALRAGNEKEEGETADTVGCCSLRVEHINLHPELDGQEYVVEFDFLGKDSIRYYNKVPVEKRVFKNLQLFMENKQPEDDLFDRLNTGILNKHLQDLMEGLTAKVFRTYNASITLQQQLKELTAPDENIPAKILSYNRANRAVAILCNHQRAPPKTFEKSMMNLQTKIDAKKEQLADARRDLKSAKADAKVMKDAKTKKVVESKKKAVQRLEEQLMKLEVQATDREENKQIALGTSKLNYLDPRITVAWCKKWGVPIEKIYNKTQREKFAWAIDMADEDYEF
On to B4, for which the “target (spectral count, OC43 Probe I RNP capture)” value with gRNA of HCoV-OC43 is 12. Besides, the “background (spectral count, no-probe control)” value in the experiment on gRNA of HCoV-OC43 came out at 2. Moreover, in the experiment on HCoV-OC43 gRNA and sgRNA, the “target (unweighted spectral count, OC43 Probe II capture)” value was 14. The “target (unweighted spectral count)” value with HCoV-OC43 gRNA and sgRNA (12 hpi (type n_12_v)) was determined as 31; with HCoV-OC43 gRNA and sgRNA (24 hpi (type n_24_v)), 12.

B5: ADAR (protein, UniProt P55265 1-1226, looked up)
Double-stranded RNA-specific …: MNPRQGYSLSGYYTHPFQGYEHRQLRYQQPGPGSSPSSFLLKQIEFLKGQLPEAPVIGKQTPSLPPSLPGLRPRFPVLLASSTRGRQVDIRGVPRGVHLRSQGLQRGFQHPSPRGRSLPQRGVDCLSSHFQELSIYQDQEQRILKFLEELGEGKATTAHDLSGKLGTPKKEINRVLYSLAKKGKLQKEAGTPPLWKIAVSTQAWNQHSGVVRPDGHSQGAPNSDPSLEPEDRNSTSVSEDLLEPFIAVSAQAWNQHSGVVRPDSHSQGSPNSDPGLEPEDSNSTSALEDPLEFLDMAEIKEKICDYLFNVSDSSALNLAKNIGLTKARDINAVLIDMERQGDVYRQGTTPPIWHLTDKKRERMQIKRNTNSVPETAPAAIPETKRNAEFLTCNIPTSNASNNMVTTEKVENGQEPVIKLENRQEARPEPARLKPPVHYNGPSKAGYVDFENGQWATDDIPDDLNSIRAAPGEFRAIMEMPSFYSHGLPRCSPYKKLTECQLKNPISGLLEYAQFASQTCEFNMIEQSGPPHEPRFKFQVVINGREFPPAEAGSKKVAKQDAAMKAMTILLEEAKAKDSGKSEESSHYSTEKESEKTAESQTPTPSATSFFSGKSPVTTLLECMHKLGNSCEFRLLSKEGPAHEPKFQYCVAVGAQTFPSVSAPSKKVAKQMAAEEAMKALHGEATNSMASDNQPEGMISESLDNLESMMPNKVRKIGELVRYLNTNPVGGLLEYARSHGFAAEFKLVDQSGPPHEPKFVYQAKVGGRWFPAVCAHSKKQGKQEAADAALRVLIGENEKAERMGFTEVTPVTGASLRRTMLLLSRSPEAQPKTLPLTGSTFHDQIAMLSHRCFNTLTNSFQPSLLGRKILAAIIMKKDSEDMGVVVSLGTGNRCVKGDSLSLKGETVNDCHAEIISRRGFIRFLYSELMKYNSQTAKDSIFEPAKGGEKLQIKKTVSFHLYISTAPCGDGALFDKSCSDRAMESTESRHYPVFENPKQGKLRTKVENGEGTIPVESSDIVPTWDGIRLGERLRTMSCSDKILRWNVLGLQGALLTHFLQPIYLKSVTLGYLFSQGHLTRAICCRVTRDGSAFEDGLRHPFIVNHPKVGRVSIYDSKRQSGKTKETSVNWCLADGYDLEILDGTRGTVDGPRNELSRVSKKNIFLLFKKLCSFRYRRDLLRLSYGEAKKAARDYETAKNYFKKGLKDMGYGNWISKPQEEKNFYLCPV
Regarding B5, in the experiment on gRNA of HCoV-OC43, the “target (spectral count, OC43 Probe I RNP capture)” value was 11 and the “background (spectral count, no-probe control)” value was 2. Further, in the experiment with HCoV-OC43 gRNA and sgRNA, the “target (unweighted spectral count, OC43 Probe II)” value was 11 and the “background (unweighted spectral count, no-probe control)” value amounted to 2.

B6: EIF2AK2 (protein, UniProt P19525 2-551, looked up)
Interferon-induced, …: AGDLSAGFFMEELNTYRQKQGVVLKYQELPNSGPPHDRRFTFQVIIDGREFPEGEGRSKKEAKNAAAKLAVEILNKEKKAVSPLLLTTTNSSEGLSMGNYIGLINRIAQKKRLTVNYEQCASGVHGPEGFHYKCKMGQKEYSIGTGSTKQEAKQLAAKLAYLQILSEETSVKSDYLSSGSFATTCESQSNSLVTSTLASESSSEGDFSADTSEINSNSDSLNSSSLLMNGLRNNQRKAKRSLAPRFDLPDMKETKYTVDKRFGMDFKEIELIGSGGFGQVFKAKHRIDGKTYVIKRVKYNNEKAEREVKALAKLDHVNIVHYNGCWDGFDYDPETSDDSLESSDYDPENSKNSSRSKTKCLFIQMEFCDKGTLEQWIEKRRGEKLDKVLALELFEQITKGVDYIHSKKLIHRDLKPSNIFLVDTKQVKIGDFGLVTSLKNDGKRTRSKGTLRYMSPEQISSQDYGKEVDLYALGLILAELLHVCDTAFETSKFFTDLRDGIISDIFDKKEKTLLQKLLSKKPEDRPNTSEILRTLTVWKKSPEKNERHTC
On to B6, for which, in the experiment on gRNA of HCoV-OC43, the “target (spectral count, OC43 Probe I RNP capture)” value turned out to be 8 and the “background (spectral count, no-probe control)” value was determined as 1. Also, in the experiment on HCoV-OC43 gRNA and sgRNA, the “target (unweighted spectral count, OC43 Probe II capture)” value is recorded as 4; the “target (unweighted spectral count, OC43 Probe II)” value was determined as 8; the “background (unweighted spectral count, no-probe control)” value is listed as 1.
